Results taken from the supplement of paper PMC9170038.

Test system: MS2 coat protein
Assay: apparent KD of MS2 coat protein; higher = weaker reporter binding
Details: Eterna round: R107
Method in brief: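 Apparent KD stands for the median, per design, of fits to normalised cluster binding curves. The curves came from titrating on-chip-transcribed RNA switches on Illumina sequencing clusters with SNAP-549-labelled MS2 coat protein, twofold from 0.7 or 1.5 nM to 3 µM. Buffer was 100 mM Tris-HCl pH 7.5, 80 mM KCl, 4 mM MgCl2, without or with constant ligand.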

[1] = input ligand: theophylline 20 uM
[2] = input ligand: theophylline 2 mM
[3] = input ligand: tryptophan 2.4 mM

| Sequence | apparent KD of MS2 coat protein (input ligand: arginine 13.2 mM) [nM] | apparent KD of MS2 coat protein [1] [nM] | apparent KD of MS2 coat protein [2] [nM] | apparent KD of MS2 coat protein (input ligand: none) [nM] | apparent KD of MS2 coat protein [3] [nM] |
| --- | --- | --- | --- | --- | --- |
| UAUAUAUAUCACGAACUGUGGUGUAUGUCUCGAGGACCGGUACGGCCGCCACUCGCGCGGCCUCACAUGAGGAUCACCCAUGUCC [XTryp A #5] | 66.9 | 132 | 107 |  |  |
| AGCCACUCGAGUGAUCCUCACGAGUGGCAACGAGGACCGGUACGGCCGCCACUCGAAUAACAUGAGGAUCACCCAUGUUUAUAAU [#01 Tryptophan A - Same State] | 51.1 | 176 | 258 |  |  |
| UGCUACAUGAGGAUCACCCAUGUGGGUGAUACCAGCAUUCGUUUAUGCCCUUGGCAGCGCAGCCGAACCAAUCAUUCGGCAGAAA [Artiusar] | 21 | 201 | 861 | 23 | 81 |
| AGAAUAACACAUGAGGAUCACCCAUGUGAUACCAGCUAGGAAACUAGCCCUUGGCAGCACAUAAGGUGAUCCAGCUGCCAAGAAU [(M1)-(M2)-(T1)-(T2)-(M)'-(T)'_Design1_2/19/17] | 65.2 | 175 |  |  | 102 |
| UAUCCACAUGAGGAUCACCCAUGUGAGGAAGGAGCGGUGAAUGCACCAGGUAGGUCGCCUUGCUGAGGACAGCCGGUGGAUUCGU [Exclusion - Arginine A (Freestyle 25)] | 13.5 | 16.2 | 15.8 | 12.4 | 18.3 |
| AACAGGGUCUGAAGGAGCGCGAUCACAUGAGGAUCACCCAUGUGAAAUGGUAGAUGAUACUCGCAGGUAGGUCGCAGUACUUGAC [Same State Arginine B GF 15] | 54.2 | 127 | 82.4 | 33.6 | 28.4 |
| AAUAAUCUAGGUGAUACCAGCUCAACAUGAGGAUCACCCAUGUACUCAUGUAGAGUUGAGAGCCCUUGGCAGCACCUAGAUAAUA [(Theo1)-(Ms2)-(M)'-(T)'-(Theo2)] | 198 | 665 |  |  | 1020 |
| AAUCUGUCGGGUGAUACCAGCCUCGGCGCAUCUCACGCUGAACAUGAGGAUCACCCAUGUGGCCCUUGGCAGCACAUGACAAAUC [Tivece] | 202 | 709 |  |  | 620 |
| UACCGAUGAAGAAGGAGCGUGCGUGGUUCACAUGAGGAUCACCCAUGUGCUUUAUACUAGGCACAGGUAGGUCGCUUCAUCGGUA [SSAB NP+V+V2 #22] | 24.3 | 30.7 | 27.8 | 19.4 | 23.3 |
| CGGGCCGCUGCGGAUACCAGUUGAGCAUAGGUAGUGUAUGACAUGAGGAUCACCCAUGUUAACCCUUGGCAGCCGAGAGGGCAGA [theeternabot_exclusion_MS2_Theo_B_13] | 10.4 | 20.2 | 15.4 | 11.6 | 10.2 |
| UAACAUGAGGAUCACCCAUGUUUGAAGAAACGAGGACCGGUACGGCCGCCACUCGACGAGUGGAUGAAUAGUGGGCUUGUGUGCU [Same State Trp A GF10] | 11 | 16 | 13.1 |  |  |
| GGGUACAUCACGGCCGCCACUCAUGUAAAUACAUGAGGAUCACCCAUGUCGAUGGAGACAUCGGAGAGGACCGGGUGAUGUACCG | 187 | 394 | 620 |  |  |
| UGAUCCUGCAGGGAUACCAGCGCCGCUAGAUAACUAUGCACAUGAGGAUCACCCAUGUAACGCCCUUGGCAGCCCAACUAAAGGG [Same State Theophylline B GF21] | 28.9 | 41 | 26.7 | 39.9 | 35.2 |
| ACAUGAGGAUCACCCAUGUUCCUCAUUGAUACCAGUGAAUUUAGACGCCCUUGGCAGCGAGUUUUUGAAGAAGAAGUUUUUUUUU [6.D] | 235 | 731 |  |  | 1080 |
| CCAUGCAGGUCGGCCGCCACUACACACAUGAGGAUCACCCAUGUAGUUACUGGGUGAAGUGGCAGUAGGACCGGGACCUGCAUAC [Brourdmod12] | 78.2 | 459 | 540 | 341 | 395 |
| AGACAUGAGGAUCACCCAUGUAGCAUGGAUACCAGAUGUAGAUUUAUCCCUUGGCAGCUGUGGUAAAGUGAUGCAUUGCUCCUAG [Exclusion - Theophylline A (Freestyle 5)] | 28.5 | 50.1 |  |  | 34 |
| UUCGCGGCCGCGCUGCACAUGUGUGUGUUACGAGGACCGGUACGGCCGCCACUCGCGAUCGCACAUGAGGAUCACCCAUGUGGGA [Exclusion Tryp A GF17] | 24.1 | 35.8 | 75.6 | 25.7 | 1040 |
